{
  "source": "paper doi:10.1101/820381v1",
  "about": "(biorxiv, 2019)",
  "key": {"[1]": {"target": "T1, OPR3 (12-oxophytodienoic acid reductase 3) (Arabidopsis thaliana, UniProt Q9FUP0)", "T1 sequence (Q9FUP0 whole entry)": "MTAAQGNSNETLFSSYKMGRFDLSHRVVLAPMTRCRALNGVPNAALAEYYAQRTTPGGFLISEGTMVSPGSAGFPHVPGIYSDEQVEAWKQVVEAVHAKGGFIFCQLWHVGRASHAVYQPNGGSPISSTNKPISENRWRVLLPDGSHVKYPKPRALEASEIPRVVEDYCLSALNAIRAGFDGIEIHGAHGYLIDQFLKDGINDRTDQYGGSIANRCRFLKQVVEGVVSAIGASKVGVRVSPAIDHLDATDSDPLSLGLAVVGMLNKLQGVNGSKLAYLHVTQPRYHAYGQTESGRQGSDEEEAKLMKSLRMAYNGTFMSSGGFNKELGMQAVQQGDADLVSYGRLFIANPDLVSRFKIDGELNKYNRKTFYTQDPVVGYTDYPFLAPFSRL", "details": "NADPH co-substrate, 40 mmol/L KPi pH 7.2, 25°C, aerobic"}, "[2]": {"tested_on": "CC/C=C\\C[C@@H]1C(=O)C=C[C@@H]1CCCCCCCC(=O)O", "assay": "purified protein", "details": "pH 7.2; 25.0 °C"}, "O=C1C=CCC1": {"tested_on": "O=C1C=CCC1", "assay": "purified protein", "details": "pH 7.2; 25.0 °C"}, "[3]": {"tested_on": "[O]C1=C(O)[C@@H]([C@@H](O)CO)OC1=O", "assay": "purified protein", "details": "pH 7.8"}, "[4]": {"target": "T1, OPR3 (12-oxophytodienoic acid reductase 3)", "assay": "intrinsic Trp fluorescence quenching", "format": "binding", "details": "0.75 µmol/L OPR3, 40 mmol/L KPi pH 7.2, 25°C"}},
  "data": [
    {"compound": "C=CC(C)=O", "note": "[MVK]", "values": [
      {"measurement": "Km", "setting": "[1]", "result": "38.5 ± 14", "unit": "µM"}
    ]},
    {"compound": "OPR3 (12-oxophytodienoic acid reductase 3) (Arabidopsis thaliana)", "values": [
      {"measurement": "Km", "setting": "[2]", "result": "28.3 ± 8.5", "unit": "µM"},
      {"measurement": "Km", "setting": "O=C1C=CCC1", "result": "1967 ± 825", "unit": "µM"},
      {"measurement": "Km", "setting": "[3]", "result": 1, "unit": "µM"}
    ]},
    {"compound": "CC/C=C\\C[C@@H]1C(=O)C=C[C@@H]1CCCCCCCC(=O)O", "note": "[12-OPDA]", "values": [
      {"measurement": "% quenching at 607 μmol/L", "setting": "[4]", "result": "54.0±0.4", "unit": "%"}
    ]}
  ]
}
